Results from the supplement of paper PMC11246515.
± gives the standard deviation of the averaged measurements.

Assay: total protein half-life in vivo (active degradation + dilution); higher = more stable protein
[1] = E. coli NCM3722 delta-clpP delta-lon delta-hslV, growth: N-lim chemostat, doubling time 6 h
[2] = E. coli NCM3722 delta-clpP, growth: N-lim chemostat, doubling time 6 h
[3] = E. coli NCM3722 delta-hslV, growth: N-lim chemostat, doubling time 6 h
[4] = E. coli NCM3722 delta-smpB, growth: N-lim chemostat, doubling time 6 h
[5] = wild type E. coli NCM3722, growth: C-lim chemostat, doubling time 3 h
[6] = wild type E. coli NCM3722, growth: C-lim chemostat, doubling time 6 h
[7] = wild type E. coli NCM3722, growth: C-lim chemostat, doubling time 12 h
[8] = wild type E. coli NCM3722, growth: N-lim chemostat, doubling time 6 h
[9] = wild type E. coli NCM3722, growth: N-lim chemostat, doubling time 12 h
[10] = wild type E. coli NCM3722, growth: P-lim chemostat, doubling time 6 h
[11] = wild type E. coli NCM3722, growth: P-lim chemostat, doubling time 12 h
[12] = E. coli NCM3722 delta-lon, growth: N-lim chemostat, doubling time 6 h

Sequence	total protein half-life in vivo [1] [h]	total protein half-life in vivo [2] [h]	total protein half-life in vivo [3] [h]	total protein half-life in vivo [4] [h]	total protein half-life in vivo [5] [h]	total protein half-life in vivo [6] [h]	total protein half-life in vivo [7] [h]	total protein half-life in vivo [8] [h]	total protein half-life in vivo [9] [h]	total protein half-life in vivo [10] [h]	total protein half-life in vivo [11] [h]	total protein half-life in vivo [12] [h]
MNPERSERIEIPVLPLRDVVVYPHMVIPLFVGREKSIRCLEAAMDHDKKIMLVAQKEASTDEPGVNDLFTVGTVASILQMLKLPDGTVKVLVEGLQRARISALSDNGEHFSAKAEYLESPTIDEREQEVLVRTAISQFEGYIKLNKKIPPEVLTSLNSIDDPARLADTIAAHMPLKLADKQSVLEMSDVNERLEYLMAMMESEIDLLQVEKRIRNRVKKQMEKSQREYYLNEQMKAIQKELGEMDDAPDENEALKRKIDAAKMPKEAKEKAEAELQKLKMMSPMSAEATVVRGYIDWMVQVPWNARSKVKKDLRQAQEILDTDHYGLERVKDRILEYLAVQSRVNKIKGPILCLVGPPGVGKTSLGQSIAKATGRKYVRMALGGVRDEAEIRGHRRTYIGSMPGKLIQKMAKVGVKNPLFLLDEIDKMSSDMRGDPASALLEVLDPEQNVAFSDHYLEVDYDLSDVMFVATSNSMNIPAPLLDRMEVIRLSGYTEDEKLNIAKRHLLPKQIERNALKKGELTVDDSAIIGIIRYYTREAGVRGLEREISKLCRKAVKQLLLDKSLKHIEINGDNLHDYLGVQRFDYGRADNENRVGQVTGLAWTEVGGDLLTIETACVPGKGKLTYTGSLGEVMQESIQAALTVVRARAEKLGINPDFYEKRDIHVHVPEGATPKDGPSAGIAMCTALVSCLTGNPVRADVAMTGEITLRGQVLPIGGLKEKLLAAHRGGIKTVLIPFENKRDLEEIPDNVIADLDIHPVKRIEEVLTLALQNEPSGMQVVTAK [P0A9M0]	3.09	6.54 ± 0.34	4.728 ± 0.026	4.49 ± 0.13	2.889 ± 0.0043	5.944 ± 0.036	11.2 ± 0.36	4.74 ± 0.17	6.68 ± 0.68	5.58 ± 0.2	10.7 ± 0.49	–
MMEFILSHVEKGVMTLTLNRPERLNSFNDEMHAQLAECLKQVERDDTIRCLLLTGAGRGFCAGQDLNDRNVDPTGPAPDLGMSVERFYNPLVRRLAKLPKPVICAVNGVAAGAGATLALGGDIVIAARSAKFVMAFSKLGLIPDCGGTWLLPRVAGRARAMGLALLGNQLSAEQAHEWGMIWQVVDDETLADTAQQLARHLATQPTFGLGLIKQAINSAETNTLDTQLDLERDYQRLAGRSADYREGVSAFLAKRSPQFTGK	4.04	–	–	–	–	–	–	–	–	–	–	–
MNQNLLVTKRDGSTERINLDKIHRVLDWAAEGLHNVSISQVELRSHIQFYDGIKTSDIHETIIKAAADLISRDAPDYQYLAARLAIFHLRKKAYGQFEPPALYDHVVKMVEMGKYDNHLLEDYTEEEFKQMDTFIDHDRDMTFSYAAVKQLEGKYLVQNRVTGEIYESAQFLYILVAACLFSNYPRETRLQYVKRFYDAVSTFKISLPTPIMSGVRTPTRQFSSCVLIECGDSLDSINATSSAIVKYVSQRAGIGINAGRIRALGSPIRGGEAFHTGCIPFYKHFQTAVKSCSQGGVRGGAATLFYPMWHLEVESLLVLKNNRGVEGNRVRHMDYGVQINKLMYTRLLKGEDITLFSPSDVPGLYDAFFADQEEFERLYTKYEKDDSIRKQRVKAVELFSLMMQERASTGRIYIQNVDHCNTHSPFDPAIAPVRQSNLCLEIALPTKPLNDVNDENGEIALCTLSAFNLGAINNLDELEELAILAVRALDALLDYQDYPIPAAKRGAMGRRTLGIGVINFAYYLAKHGKRYSDGSANNLTHKTFEAIQYYLLKASNELAKEQGACPWFNETTYAKGILPIDTYKKDLDTIANEPLHYDWEALRESIKTHGLRNSTLSALMPSETSSQISNATNGIEPPRGYVSIKASKDGILRQVVPDYEHLHDAYELLWEMPGNDGYLQLVGIMQKFIDQSISANTNYDPSRFPSGKVPMQQLLKDLLTAYKFGVKTLYYQNTRDGAEDAQDDLVPSIQDDGCESGACKI	4.05 ± 0.63	3.93 ± 0.074	4.03 ± 0.099	3.67 ± 0.52	3.07 ± 0.15	4.91 ± 0.43	9.24 ± 1.7	3.85 ± 0.23	5.89 ± 0.22	5.93 ± 0.08	11.1 ± 0.48	4.24 ± 0.14
MYKQAVILLLMLFTASVSAALPARYMQTIENAAVWAQIGDKMVTVGNIRAGQIIAVEPTAASYYAFNFGFGKGFIDKGHLEPVQGRQKVEDGLGDLNKPLSNQNLVTWKDTPVYNAPSAGSAPFGVLADNLRYPILHKLKDRLNQTWYQIRIGDRLAYISALDAQPDNGLSVLTYHHILRDEENTRFRHTSTTTSVRAFNNQMAWLRDRGYATLSMVQLEGYVKNKINLPARAVVITFDDGLKSVSRYAYPVLKQYGMKATAFIVTSRIKRHPQKWNPKSLQFMSVSELNEIRDVFDFQSHTHFLHRVDGYRRPILLSRSEHNILFDFARSRRALAQFNPHVWYLSYPFGGFNDNAVKAANDAGFHLAVTTMKGKVKPGDNPLLLKRLYILRTDSLETMSRLVSNQPQG	5.86 ± 0.059	5.98 ± 0.23	5.24 ± 0.3	5.73 ± 0.38	–	4.78	12.5	5.58 ± 0.86	11.6 ± 3	5.64	12.4	–
MNPVPAQREYFLDSIRAWLMLLGIPFHISLIYSSHTWHVNSAESSLWLTLFNDFIHSFRMQVFFVISGYFSYMLFLRYPLKKWWKVRVERVGIPMLTAIPLLTLPQFIMLQYVKGKAESWPGLSLYDKYNTLAWELISHLWFLLVLVVMTTLCVWIFKRIRNNLENSDKTNKKFSMVKLSVIFLCLGIGYAVIRRTIFIVYPPILSNGMFNFIVMQTLFYLPFFILGALAFIFPHLKALFTTPSRGCTLAAALAFVAYLLNQRYGSGDAWMYETESVITMVLGLWMVNVVFSFGHRLLNFQSARVTYFVNASLFIYLVHHPLTLFFGAYITPHITSNWLGFLCGLIFVVGIAIILYEIHLRIPLLKFLFSGKPVVKRENDKAPAR	> 8	5.18	–	6.23	–	–	–	–	9.69	7.05	> 16	–
MNFEGKIALVTGASRGIGRAIAETLAARGAKVIGTATSENGAQAISDYLGANGKGLMLNVTDPASIESVLEKIRAEFGEVDILVNNAGITRDNLLMRMKDEEWNDIIETNLSSVFRLSKAVMRAMMKKRHGRIITIGSVVGTMGNGGQANYAAAKAGLIGFSKSLAREVASRGITVNVVAPGFIETDMTRALSDDQRAGILAQVPAGRLGGAQEIANAVAFLASDEAAYITGETLHVNGGMYMV [P0AEK2]	5.03 ± 0.11	4.85 ± 0.11	4.8 ± 0.2	4.814 ± 0.012	2.98 ± 0.11	5.91 ± 0.17	12.8 ± 3.6	4.81 ± 0.28	8.546 ± 0.024	6.06 ± 0.38	11.3 ± 0.73	5.27 ± 0.39
MLIRVEIPIDAPGIDALLRRSFESDAEAKLVHDLREDGFLTLGLVATDDEGQVIGYVAFSPVDVQGEDLQWVGMAPLAVDEKYRGQGLARQLVYEGLDSLNEFGYAAVVTLGDPALYSRFGFELAAHHDLRCRWPGTESAFQVHRLADDALNGVTGLVEYHEHFNRF	5.29 ± 0.2	4.46 ± 0.13	4.22 ± 0.15	3.73 ± 0.17	3.02 ± 0.3	–	9.91 ± 0.78	4.51 ± 0.72	7.82 ± 0.18	5.72 ± 0.43	11.7 ± 0.65	4.44 ± 0.37
